Test results taken from patent US20240132593A1.

Columns and labels:
5.1-VISTA-ECD-Fc (human) = assay: ELISA on plate-bound VISTA-ECD-Fc
4.1-VISTA-ECD-Fc (human) = assay: ELISA on plate-bound VISTA-ECD-Fc
[1] = molecular target: 2.1C-VISTA-ECD-Fc (human); assay: ELISA on plate-bound VISTA-ECD-Fc
RFQ-VISTA-ECD-Fc (human) = assay: ELISA, 10 ug/mL antibody on plate-bound mutant VISTA-Fc
RFQ-VISTA-ECD-Fc (human), sequence (chain, as listed by the source): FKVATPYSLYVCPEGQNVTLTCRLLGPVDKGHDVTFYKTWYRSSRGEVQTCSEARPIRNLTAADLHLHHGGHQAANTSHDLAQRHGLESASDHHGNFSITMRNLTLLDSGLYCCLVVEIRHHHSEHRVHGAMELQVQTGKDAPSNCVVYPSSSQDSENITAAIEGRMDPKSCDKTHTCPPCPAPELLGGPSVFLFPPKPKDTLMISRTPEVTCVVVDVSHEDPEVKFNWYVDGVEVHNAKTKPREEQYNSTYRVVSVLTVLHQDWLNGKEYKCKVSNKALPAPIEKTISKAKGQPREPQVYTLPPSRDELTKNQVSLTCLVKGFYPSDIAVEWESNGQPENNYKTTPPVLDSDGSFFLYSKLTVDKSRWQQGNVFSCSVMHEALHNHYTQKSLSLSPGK

5.1-VISTA-ECD-Fc (human), sequence (chain, as listed by the source): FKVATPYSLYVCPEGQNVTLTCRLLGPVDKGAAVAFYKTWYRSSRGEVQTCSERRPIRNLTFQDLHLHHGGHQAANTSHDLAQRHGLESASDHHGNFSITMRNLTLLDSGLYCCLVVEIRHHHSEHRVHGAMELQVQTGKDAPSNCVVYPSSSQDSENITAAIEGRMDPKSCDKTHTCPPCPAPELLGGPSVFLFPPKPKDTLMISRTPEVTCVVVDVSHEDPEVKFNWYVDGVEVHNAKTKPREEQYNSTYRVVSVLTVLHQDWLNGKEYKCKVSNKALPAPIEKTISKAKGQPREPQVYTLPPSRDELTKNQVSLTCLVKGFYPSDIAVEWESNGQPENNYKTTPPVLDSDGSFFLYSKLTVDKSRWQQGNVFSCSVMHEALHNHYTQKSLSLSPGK
2.1C-VISTA-ECD-Fc (human), sequence (chain, as listed by the source): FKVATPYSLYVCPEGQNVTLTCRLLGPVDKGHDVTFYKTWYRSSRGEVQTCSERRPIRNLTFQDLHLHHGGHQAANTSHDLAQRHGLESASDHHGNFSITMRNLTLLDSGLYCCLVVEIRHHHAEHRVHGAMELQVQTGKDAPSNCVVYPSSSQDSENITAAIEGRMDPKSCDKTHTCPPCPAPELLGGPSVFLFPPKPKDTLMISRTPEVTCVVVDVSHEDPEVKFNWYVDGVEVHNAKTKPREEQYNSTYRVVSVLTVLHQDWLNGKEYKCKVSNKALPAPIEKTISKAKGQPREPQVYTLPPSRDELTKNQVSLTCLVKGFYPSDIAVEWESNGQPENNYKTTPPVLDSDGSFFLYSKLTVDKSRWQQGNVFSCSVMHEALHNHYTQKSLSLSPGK
4.1-VISTA-ECD-Fc (human), sequence (chain, as listed by the source): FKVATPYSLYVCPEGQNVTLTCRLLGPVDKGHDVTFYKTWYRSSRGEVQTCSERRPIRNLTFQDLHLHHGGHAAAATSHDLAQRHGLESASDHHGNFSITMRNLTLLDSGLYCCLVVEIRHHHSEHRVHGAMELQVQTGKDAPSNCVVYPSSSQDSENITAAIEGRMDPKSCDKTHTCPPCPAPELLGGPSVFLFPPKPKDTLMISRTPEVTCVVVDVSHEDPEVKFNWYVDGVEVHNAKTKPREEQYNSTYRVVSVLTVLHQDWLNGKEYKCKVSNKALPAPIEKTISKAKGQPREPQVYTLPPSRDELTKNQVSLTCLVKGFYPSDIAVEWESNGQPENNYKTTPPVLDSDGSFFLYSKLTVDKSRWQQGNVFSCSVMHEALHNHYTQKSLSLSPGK

EC50 (5.1-VISTA-ECD-Fc (human)): 100 µg/mL | EC50 (4.1-VISTA-ECD-Fc (human)): 100 µg/mL | EC50 [1]: 100 µg/mL | ELISA Abs 450 nm (RFQ-VISTA-ECD-Fc (human)): 0.019 Abs 450 nm
Substance: IgG1 (antibody)
